Patent publication US20220112291A1 (Pfizer, published 2022)

Tests used:
[1] = molecular target: T1, human CD1a expressed on cells (human, UniProt P06126 17-327); assay: cell-based or functional assay
[2] = molecular target: T1, human CD1a expressed on cells; assay: cell-based or functional assay; remark: listed apart in the source
Human C1q = molecular target: T2, Human C1q (human, UniProt P02745 23-245; P02746 28-253; P02747 29-245); assay: in vitro human C1q binding assay
T2 construct: Source and form of C1q not described; also called Clq
T2 sequence (P02745 23-245 limits assumed, chain 1 of 3): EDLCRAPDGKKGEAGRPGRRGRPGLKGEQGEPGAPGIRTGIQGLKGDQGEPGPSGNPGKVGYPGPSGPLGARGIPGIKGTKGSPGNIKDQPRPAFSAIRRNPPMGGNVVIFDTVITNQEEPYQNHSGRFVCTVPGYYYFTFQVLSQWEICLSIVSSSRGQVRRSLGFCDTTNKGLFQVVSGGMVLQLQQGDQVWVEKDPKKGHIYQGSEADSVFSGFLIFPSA
T2 sequence (P02746 28-253 limits assumed, chain 2 of 3): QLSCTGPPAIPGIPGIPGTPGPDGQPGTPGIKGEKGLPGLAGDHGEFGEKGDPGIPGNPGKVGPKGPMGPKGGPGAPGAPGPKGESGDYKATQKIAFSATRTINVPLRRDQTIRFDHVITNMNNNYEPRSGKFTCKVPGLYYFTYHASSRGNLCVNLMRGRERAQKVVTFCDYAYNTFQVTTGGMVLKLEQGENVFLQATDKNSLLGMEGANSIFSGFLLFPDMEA
T2 sequence (P02747 29-245 limits assumed, chain 3 of 3): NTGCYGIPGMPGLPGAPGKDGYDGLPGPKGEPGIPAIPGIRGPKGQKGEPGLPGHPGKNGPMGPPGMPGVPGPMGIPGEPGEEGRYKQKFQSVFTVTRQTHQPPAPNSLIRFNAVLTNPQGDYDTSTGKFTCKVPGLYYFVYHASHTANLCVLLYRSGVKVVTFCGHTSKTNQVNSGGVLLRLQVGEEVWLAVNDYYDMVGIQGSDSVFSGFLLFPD

[3] = molecular target: T3, human single-chain CD1a-β2M recombinant protein (Human B2M-CD1a ECD-Avi-His6) (human); assay: SPR (Biacore), IgG; antigen taken as human CD1a
T3 construct: Biotinylated in the HTRF, phage selection and Gyrolab assays; also called human CD1a; CD1a protein

[4] = molecular target: Human CD1b (recombinant; Human B2M-CD1b ECD-His6) (human); assay: ELISA, plates coated with recombinant CD1b, titrated Ab571
Chain of Human CD1b (recombinant; Human B2M-CD1b ECD-His6) (human) (chain, as listed by the source limits assumed): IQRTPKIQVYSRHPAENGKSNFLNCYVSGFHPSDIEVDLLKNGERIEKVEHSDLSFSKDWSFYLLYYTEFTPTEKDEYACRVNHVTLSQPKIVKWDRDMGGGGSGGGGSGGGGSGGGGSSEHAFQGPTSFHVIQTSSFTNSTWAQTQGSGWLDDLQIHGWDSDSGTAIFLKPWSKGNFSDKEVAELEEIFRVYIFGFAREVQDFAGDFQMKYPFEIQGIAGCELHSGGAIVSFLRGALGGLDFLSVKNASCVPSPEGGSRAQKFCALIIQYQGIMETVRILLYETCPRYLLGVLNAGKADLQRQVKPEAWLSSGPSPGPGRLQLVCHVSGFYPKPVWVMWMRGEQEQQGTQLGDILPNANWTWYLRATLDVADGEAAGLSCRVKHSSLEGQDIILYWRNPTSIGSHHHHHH

[5] = molecular target: Human CD1c (recombinant; Human B2M-CD1c ECD-His6) (human); assay: ELISA, plates coated with recombinant CD1c, titrated Ab571
Chain of Human CD1c (recombinant; Human B2M-CD1c ECD-His6) (human) (chain, as listed by the source limits assumed): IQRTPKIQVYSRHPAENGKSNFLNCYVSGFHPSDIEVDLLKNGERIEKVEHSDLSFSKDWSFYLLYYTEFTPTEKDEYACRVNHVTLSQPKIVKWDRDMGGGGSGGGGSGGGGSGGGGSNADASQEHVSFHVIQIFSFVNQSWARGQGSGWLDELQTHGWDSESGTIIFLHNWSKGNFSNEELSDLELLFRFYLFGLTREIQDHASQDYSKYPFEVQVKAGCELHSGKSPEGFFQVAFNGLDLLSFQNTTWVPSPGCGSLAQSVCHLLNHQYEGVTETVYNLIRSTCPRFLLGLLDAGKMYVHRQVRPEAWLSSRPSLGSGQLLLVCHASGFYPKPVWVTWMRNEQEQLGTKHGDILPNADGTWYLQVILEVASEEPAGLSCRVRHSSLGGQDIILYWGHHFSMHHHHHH

[6] = molecular target: Human CD1d (recombinant; Human B2M-CD1d ECD-His6) (human); assay: ELISA, plates coated with recombinant CD1d, titrated Ab571
Chain of Human CD1d (recombinant; Human B2M-CD1d ECD-His6) (human) (chain, as listed by the source limits assumed): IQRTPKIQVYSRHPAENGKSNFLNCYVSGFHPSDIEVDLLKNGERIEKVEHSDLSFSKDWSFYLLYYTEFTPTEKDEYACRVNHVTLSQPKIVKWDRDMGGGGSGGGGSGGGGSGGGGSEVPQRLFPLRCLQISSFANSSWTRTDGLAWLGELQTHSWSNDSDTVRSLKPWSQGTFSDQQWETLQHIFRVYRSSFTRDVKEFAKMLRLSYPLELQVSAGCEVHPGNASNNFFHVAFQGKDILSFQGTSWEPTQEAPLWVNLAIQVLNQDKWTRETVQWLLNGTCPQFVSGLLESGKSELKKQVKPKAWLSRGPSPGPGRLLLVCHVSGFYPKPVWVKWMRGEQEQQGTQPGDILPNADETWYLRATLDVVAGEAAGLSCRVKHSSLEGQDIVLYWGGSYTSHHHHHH

[7] = molecular target: T3, human single-chain CD1a-β2M recombinant …; assay: ELISA, plates coated with recombinant human CD1a, titrated Ab571
[8] = molecular target: T3, human single-chain CD1a-β2M recombinant …; assay: Surface Plasmon Resonance (summary table; same experiment as Table 7)
[9] = molecular target: T4, cynomolgus CD1a-β2M recombinant protein (Cyno B2M-CD1a ECD-Avi-His6) (cynomolgus monkey); assay: as above
T4 construct: also called cyno CD1a; cynomolgus monkey CD1a
T4 chain: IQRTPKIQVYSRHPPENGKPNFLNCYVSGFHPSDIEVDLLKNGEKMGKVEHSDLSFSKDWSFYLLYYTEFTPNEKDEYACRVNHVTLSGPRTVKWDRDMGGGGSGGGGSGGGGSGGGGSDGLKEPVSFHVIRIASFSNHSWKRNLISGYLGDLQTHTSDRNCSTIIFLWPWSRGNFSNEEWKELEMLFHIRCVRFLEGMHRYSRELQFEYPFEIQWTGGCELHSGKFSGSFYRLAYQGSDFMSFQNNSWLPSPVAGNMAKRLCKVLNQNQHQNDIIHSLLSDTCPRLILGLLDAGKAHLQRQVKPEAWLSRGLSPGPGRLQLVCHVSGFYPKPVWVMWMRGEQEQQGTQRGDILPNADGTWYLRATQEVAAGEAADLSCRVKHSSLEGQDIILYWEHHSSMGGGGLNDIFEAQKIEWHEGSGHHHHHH

[10] = molecular target: T4, cynomolgus CD1a-β2M recombinant protein …; assay: SPR (Biacore 8K, 37 °C), Ab571 captured by anti-human Fc, cyno CD1a as analyte, 1:1 Langmuir fit
[11] = molecular target: T3, human single-chain CD1a-β2M recombinant …; assay: SPR (Biacore 8K, 37 °C), Ab571 captured by anti-human Fc, human CD1a as analyte, 1:1 Langmuir fit
[12] = molecular target: T1, human CD1a expressed on cells; assay: flow cytometry, AF-647-conjugated Ab571 on primary human monocyte-derived dendritic cells; average
[13] = molecular target: T4, cynomolgus CD1a-β2M recombinant protein …; assay: SPR (Biacore 8K, 37 °C), Ab571 captured by anti-human Fc, cyno CD1a as analyte, 1:1 Langmuir fit; mean ± SD, n = 6
[14] = molecular target: T3, human single-chain CD1a-β2M recombinant …; assay: SPR (Biacore 8K, 37 °C), Ab571 captured by anti-human Fc, human CD1a as analyte, 1:1 Langmuir fit; mean ± SD, n = 6
[15] = molecular target: T3, human single-chain CD1a-β2M recombinant …; assay: competition ELISA on plate-coated CD1a protein; competitor: biotinylated parental chimeric Ab40 at a fixed concentration; streptavidin-HRP, OD450
Target sequence in this assay (chain, as listed by the source limits assumed): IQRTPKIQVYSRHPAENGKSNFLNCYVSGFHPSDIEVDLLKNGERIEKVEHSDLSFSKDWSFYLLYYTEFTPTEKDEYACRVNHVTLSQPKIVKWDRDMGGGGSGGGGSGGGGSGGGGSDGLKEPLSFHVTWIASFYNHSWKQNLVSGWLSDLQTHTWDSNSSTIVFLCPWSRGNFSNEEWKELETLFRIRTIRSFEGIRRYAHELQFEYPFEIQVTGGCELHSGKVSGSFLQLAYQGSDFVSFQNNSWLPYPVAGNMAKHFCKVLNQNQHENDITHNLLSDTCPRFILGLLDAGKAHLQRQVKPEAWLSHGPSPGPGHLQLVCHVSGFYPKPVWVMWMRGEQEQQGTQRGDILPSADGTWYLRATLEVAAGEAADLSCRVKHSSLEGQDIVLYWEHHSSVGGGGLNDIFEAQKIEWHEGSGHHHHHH

T1 sequence (P06126 17-327): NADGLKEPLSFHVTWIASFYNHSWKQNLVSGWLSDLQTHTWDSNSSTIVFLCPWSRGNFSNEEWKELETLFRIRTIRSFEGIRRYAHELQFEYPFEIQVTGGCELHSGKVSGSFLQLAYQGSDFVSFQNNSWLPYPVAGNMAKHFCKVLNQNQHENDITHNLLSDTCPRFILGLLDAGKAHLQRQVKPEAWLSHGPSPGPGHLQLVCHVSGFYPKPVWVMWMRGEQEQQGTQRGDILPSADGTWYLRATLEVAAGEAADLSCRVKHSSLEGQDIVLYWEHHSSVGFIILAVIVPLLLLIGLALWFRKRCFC

B1: Ab571 (antibody, human IgG1, kappa)
heavy: EVQLVESGGGLVQPGGSLRLSCAASGFTFTDHYMTWVRQAPGKGLEWVAFIRNKAGGYTTESNPAVKGRFTISRDNAKNSLYLQMNSLRAEDTAVYYCARETTGIPTGWFAYWGQGTLVTVSSASTKGPSVFPLAPSSKSTSGGTAALGCLVKDYFPEPVTVSWNSGALTSGVHTFPAVLQSSGLYSLSSVVTVPSSSLGTQTYICNVNHKPSNTKVDKKVEPKSCDKTHTCPPCPAPEAAGAPSVFLFPPKPKDTLMISRTPEVTCVVVDVSHEDPEVKFNWYVDGVEVHNAKTKPREEQYNSTYRVVSVLTVLHQDWLNGKEYKCKVSNKALPAPIEKTISKAKGQPREPQVYTLPPSREEMTKNQVSLTCLVKGFYPSDIAVEWESNGQPENNYKTTPPVLDSDGSFFLYSKLTVDKSRWQQGNVFSCSVMHEALHNHYTQKSLSLSPGK
light: DIQMTQSPSSLSASVGDRVTITCLASEDIYFDLAWYQQKPGKAPKLLIYGGDRLKEGVPSRFSGSGSGTDYTLTISSLQPEDFATYYCQQSYSYPYTFGQGTKLEIKRTVAAPSVFIFPPSDEQLKSGTASVVCLLNNFYPREAKVQWKVDNALQSGNSQESVTEQDSKDSTYSLSSTLTLSKADYEKHKVYACEVTHQGLSSPVTKSFNRGEC
notes: Lead optimized variant of Ab138; human IgG1 effector null / kappa; HC with or without terminal lysine; Used AF-647- or FITC-conjugated in the dendritic cell flow cytometry assays; also called FITC-Ab571; AF-647-conjugated Ab571
For B1, the “Inhibition of CD69 expression, IC50” value [1] was 1110 pM, the “Human Jurkat T cell Activation: IC50 CD69 Expression” value [2] was 894 pM and the “Human Jurkat T cell Activation: IC50 IL-2” value [2] was 268 pM. The binding result (Human C1q) was “no binding (tested: Up to 30 µg/mL (C1q))”, the Kd [3] was 170 pM and the binding result [4] was “no binding”. The binding result [5] was “no binding”, the binding result [6] was “no binding” and the EC50 [7] was 6.52 pM. It also gave a Kd [8] of 181 pM, a Kd [9] of 60 pM and a koff [10] of 9.8e-05 s⁻¹. The kon [10] was 1.64e+06 M⁻¹ s⁻¹, the koff [11] was 0.000228 s⁻¹ and the kon [11] was 1.26e+06 M⁻¹ s⁻¹. For the same binder, the EC50 [12] was 7830 pM, the Kd [13] was 60.4 pM and the Kd [14] was 181 pM.

B2: Ab673 (antibody, human IgG1, kappa, V domains shown)
VH: EVQLVESGGGLVQPGGSLRLSCAASGFTFTDHYMHWVRQAPGKGLEWVAHTRDKAGGYTTESNPAVKGRFTISRDNAKNSLYLQMNSLRAEDTAVYYCARETTRIPTGWFAYWGQGTLVTVSS
VL: DIQMTQSPSSLSASVGDRVTITCLASEDIYFDLAWYQQKPGKAPKLLIYGGDRLKEGVPSRFSGSGSGTDYTLTISSLQPEDFATYYCQQSYSYPYTFGQGTKLEIKR
notes: Optimized variant of Ab138; human IgG1 effector null / kappa; HC with or without terminal lysine
In the case of B2, the “Inhibition of CD69 expression, IC50” value [1] is reported as 300 pM, the “Inhibition of IL-2 production, IC50” value [1] is reported as 180 pM and the Kd [3] is reported as 210 pM.

B3: Ab681 (antibody, human IgG1, kappa, V domains shown)
VH: EVQLVESGGGLVQPGGSLRLSCAASGFTFTDHYMHWVRQAPGKGLEWVAHTRDKAGGYTTESNPAVKGRFTISRDNAKNSLYLQMNSLRAEDTAVYYCARETTRIPTGWFAYWGQGTLVTVSS
VL: DIQMTQSPSSLSASVGDRVTITCLASEDIYFDLAWYQQKPGKAPKLLIYGGDRLQEGVPSRFSGSGSGTDYTLTISSLQPEDFATYYCQQSESYPYTFGQGTKLEIKR
notes: as for B2
For B3, the “Inhibition of CD69 expression, IC50” value [1] was 420 pM, the “Inhibition of IL-2 production, IC50” value [1] was 120 pM and the Kd [3] was 1220 pM.

B4: Ab689 (antibody, human IgG1, kappa, V domains shown)
VH: EVQLVESGGGLVQPGGSLRLSCAASGFTFTDHYMHWVRQAPGKGLEWVAHTRDKAGGYTTESNPAVKGRFTISRDNAKNSLYLQMNSLRAEDTAVYYCARETTRIPTGWFAYWGQGTLVTVSS
VL: DIQMTQSPSSLSASVGDRVTITCLASEDIYFDLAWYQQKPGKAPKLLIYGGDRLQEGVPSRFSGSGSGTDYTLTISSLQPEDFATYYCQQSYSYPYTFGQGTKLEIKR
notes: as for B2
B4 was tested, and the “Inhibition of CD69 expression, IC50” value [1] was 410 pM, the “Inhibition of IL-2 production, IC50” value [1] was 170 pM and the Kd [3] was 3590 pM.

B5: Ab660 (antibody, human IgG1, kappa, V domains shown)
VH: EVQLVESGGGLVQPGGSLRLSCAASGFTFTDHYMHWVRQAPGKGLEWVGHIRNAAGGYTTESNPAVKGRFTISRDNAKNSLYLQMNSLRAEDTAVYYCARETTRIPTGWFAYWGQGTLVTVSS
VL: DIQMTQSPSSLSASVGDRVTITCLASEDIYFDLAWYQQKPGKAPKLLIYGASTPKDGVPSRFSGSGSGTDYTLTISSLQPEDFATYYCQQSEKYPYTFGQGTKLEIKR
notes: as for B2
With B5 the “Inhibition of CD69 expression, IC50” value [1] was 330 pM, the “Inhibition of IL-2 production, IC50” value [1] was 150 pM and the Kd [3] was 570 pM.

B6: Ab138 (antibody, human IgG1, kappa, V domains shown)
VH: EVQLVESGGGLVQPGGSLRLSCAASGFTFTDFYMNWVRQAPGKGLEWVAFIRNKANGYTTESNPSVKGRFTISRDNAKNSLYLQMNSLRAEDTAVYYCARETTGIPTGWFAYWGQGTLVTVSS
VL: DIQMTQSPSSLSASVGDRVTITCLASEDISNDLAWYQQKPGKAPKLLIYGANRLKDGVPSRFSGSGSGTDYTLTISSLQPEDFATYYCQQSYKYPYTFGQGTKLEIKR
notes: Humanized variant of chimeric Ab40; human IgG1 (L234A/L235A/G237A, effector function null) / human kappa; heavy chain can be prepared with or without the terminal lysine; Tb-labeled in the HTRF assay; also called humanized anti-CD1a antibody Ab138; parental Ab138
In the case of B6, the “Inhibition of CD69 expression, IC50” value [1] is reported as 1970 pM, the Kd [3] is reported as 3870 pM and the IC50 [15] is reported as 1940 pM.
